This is an account of results in US20210230288A1.

The target of assay [1] is IgG Fc (control). As to the kind of experiment: phage ELISA on control (IgG Fc), 89 identical clones.
For assay [2], the target named is IgG Fc (control). As to the kind of experiment: phage ELISA on control (IgG Fc), upper end.
Assay [3] concerns the target IgG Fc (control). The assay can be described thus: phage ELISA on control (IgG Fc), lower end.

B1: bb10 (SEQ ID NO 19), phage clone (designed binder)
chain: MGSWAEFKQRLAAIKTRLEALGGSEAELAAFLGEIWAFEMELAAYKGKGNPEVEALGREAAAIRMELQAYRHN
Take B1: the ELISA absorbance in the assay with IgG Fc (control) [1] amounted to 0.067 OD; with IgG Fc (control) [2], 0.125 OD; in the assay with IgG Fc (control) [3] it was 0.056 OD.
